# Where a chain is given by its changes, count along the chain named.
# T1: DLG3_1, Q92796
# T1 sequence (Q92796 125-227, limits assumed, looked up): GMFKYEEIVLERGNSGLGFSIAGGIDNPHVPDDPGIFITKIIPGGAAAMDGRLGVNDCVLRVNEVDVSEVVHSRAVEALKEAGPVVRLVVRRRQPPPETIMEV
# T2: DLG3_3, Q92796
# T2 sequence (Q92796 374-475, limits assumed, looked up): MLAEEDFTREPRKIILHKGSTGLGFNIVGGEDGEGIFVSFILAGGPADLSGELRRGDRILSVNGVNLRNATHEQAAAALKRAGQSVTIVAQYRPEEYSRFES
# T3: DVL3, Q92997
# T3 sequence (Q92997 244-331, limits assumed, looked up): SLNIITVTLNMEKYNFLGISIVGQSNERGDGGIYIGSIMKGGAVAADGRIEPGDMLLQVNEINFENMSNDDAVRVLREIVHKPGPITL
# T4: LIN7A, O14910
# T4 sequence (O14910 103-200, limits assumed, looked up): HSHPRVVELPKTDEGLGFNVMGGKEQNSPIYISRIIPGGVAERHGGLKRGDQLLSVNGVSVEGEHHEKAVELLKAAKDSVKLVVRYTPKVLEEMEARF
# T5: LIN7B, Q9HAP6
# T5 sequence (Q9HAP6 88-185, limits assumed, looked up): T4 sequence (O14910 103-200, limits assumed, looked up) with S2A, V20I, I35V, E42D, H65Q, K77Q, D78G, K89R
# T6: MPDZ_12, O75970
# T6 sequence (O75970 1857-1958, limits assumed, looked up): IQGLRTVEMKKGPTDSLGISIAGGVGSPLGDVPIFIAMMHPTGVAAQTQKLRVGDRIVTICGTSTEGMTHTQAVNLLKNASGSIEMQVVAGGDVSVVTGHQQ
# T7: PCLO, Q9Y6V0
# T7 sequence (Q9Y6V0 4491-4600, limits assumed, looked up): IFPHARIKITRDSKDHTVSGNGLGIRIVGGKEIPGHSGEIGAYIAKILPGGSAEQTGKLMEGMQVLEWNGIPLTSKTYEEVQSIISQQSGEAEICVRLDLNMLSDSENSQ
# T8: PTPN13_1, Q12923
# T8 sequence (Q12923 1088-1188, limits assumed, looked up): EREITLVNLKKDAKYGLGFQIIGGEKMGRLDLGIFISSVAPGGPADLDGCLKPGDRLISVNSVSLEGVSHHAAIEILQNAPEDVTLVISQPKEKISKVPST
# T9: SHANK1, Q9Y566
# T9 sequence (Q9Y566 658-767, limits assumed, looked up): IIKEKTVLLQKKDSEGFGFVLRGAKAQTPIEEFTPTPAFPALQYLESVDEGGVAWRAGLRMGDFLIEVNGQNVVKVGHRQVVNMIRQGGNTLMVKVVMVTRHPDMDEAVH
# T10: TX1BP3, O14907
# T10 sequence (O14907 10-122, limits assumed, looked up): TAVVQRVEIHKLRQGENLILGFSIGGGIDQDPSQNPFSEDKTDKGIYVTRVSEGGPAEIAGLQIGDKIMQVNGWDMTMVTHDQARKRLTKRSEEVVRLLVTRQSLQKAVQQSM
# Biological target: ARHGEF12, Q9NZN5-2
# Experiment: holdup assay
# Parameters: key: below the threshold = too weak to quantify, mostly under pKd 3.1 to 4
# Details: plain residues with an end cap or a label only (N-terminal biotin on a linker: ado-ado)
# Sequence of ARHGEF12, Q9NZN5-2 (Q9NZN5 other isoform, or with tags, fused parts or gaps): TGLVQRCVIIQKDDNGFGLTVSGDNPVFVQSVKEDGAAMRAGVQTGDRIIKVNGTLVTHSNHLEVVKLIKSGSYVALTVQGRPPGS
row,Binder,pKd
1,"PLPPEEESWV [GAS2L2, Q8NHY3]",below the threshold
2,"RSPVATATSC [DUSP5, Q16690]",4.26

# Biological target: DLG1_2, Q12959
# Experiment: holdup assay
# Parameters: key: below the threshold = too weak to quantify, mostly under pKd 3.1 to 4
# Details: plain residues with an end cap or a label only (N-terminal biotin on a linker: ado-ado)
# Sequence of DLG1_2, Q12959 (Q12959 314-412): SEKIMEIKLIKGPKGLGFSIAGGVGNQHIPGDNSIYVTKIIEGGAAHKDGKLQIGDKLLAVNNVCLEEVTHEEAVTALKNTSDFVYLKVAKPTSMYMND
row,Binder,pKd
1,"PLPPEEESWV [GAS2L2, Q8NHY3]",4.67
2,"RSPVATATSC [DUSP5, Q16690]",below the threshold

# Biological target: T1, DLG3_1, Q92796
# Experiment: holdup assay
# Parameters: key: below the threshold = too weak to quantify, mostly under pKd 3.1 to 4
# Details: plain residues with an end cap or a label only (N-terminal biotin on a linker: ado-ado)
row,Binder,pKd
1,"PLPPEEESWV [GAS2L2, Q8NHY3]",4.01
2,"RSPVATATSC [DUSP5, Q16690]",below the threshold

# Biological target: T2, DLG3_3, Q92796
# Experiment: holdup assay
# Parameters: key: below the threshold = too weak to quantify, mostly under pKd 3.1 to 4
# Details: plain residues with an end cap or a label only (N-terminal biotin on a linker: ado-ado)
row,Binder,pKd
1,"PLPPEEESWV [GAS2L2, Q8NHY3]",below the threshold
2,"RSPVATATSC [DUSP5, Q16690]",below the threshold

# Biological target: DLG5_1, Q8TDM6
# Experiment: holdup assay
# Parameters: key: below the threshold = too weak to quantify, mostly under pKd 3.1 to 4
# Details: plain residues with an end cap or a label only (N-terminal biotin on a linker: ado-ado)
# Sequence of DLG5_1, Q8TDM6 (Q8TDM6 617-713): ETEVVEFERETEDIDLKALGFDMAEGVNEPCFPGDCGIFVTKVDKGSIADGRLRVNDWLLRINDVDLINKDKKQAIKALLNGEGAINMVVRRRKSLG
row,Binder,pKd
1,"PLPPEEESWV [GAS2L2, Q8NHY3]",below the threshold
2,"RSPVATATSC [DUSP5, Q16690]",below the threshold

# Biological target: T3, DVL3, Q92997
# Experiment: holdup assay
# Parameters: key: below the threshold = too weak to quantify, mostly under pKd 3.1 to 4
# Details: plain residues with an end cap or a label only (N-terminal biotin on a linker: ado-ado)
row,Binder,pKd
1,"PLPPEEESWV [GAS2L2, Q8NHY3]",4.01
2,"RSPVATATSC [DUSP5, Q16690]",below the threshold

# Biological target: FRMPD2_1, Q68DX3
# Experiment: holdup assay
# Parameters: key: below the threshold = too weak to quantify, mostly under pKd 3.1 to 4
# Details: plain residues with an end cap or a label only (N-terminal biotin on a linker: ado-ado)
# Sequence of FRMPD2_1, Q68DX3 (Q68DX3 770-861): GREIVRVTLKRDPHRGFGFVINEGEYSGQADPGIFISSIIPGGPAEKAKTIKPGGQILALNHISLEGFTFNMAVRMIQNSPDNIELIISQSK
row,Binder,pKd
1,"PLPPEEESWV [GAS2L2, Q8NHY3]",below the threshold
2,"RSPVATATSC [DUSP5, Q16690]",below the threshold

# Biological target: GOPC, Q9HD26
# Experiment: holdup assay
# Parameters: key: below the threshold = too weak to quantify, mostly under pKd 3.1 to 4
# Details: plain residues with an end cap or a label only (N-terminal biotin on a linker: ado-ado)
row,Binder,pKd
1,"PLPPEEESWV [GAS2L2, Q8NHY3]",below the threshold
2,"RSPVATATSC [DUSP5, Q16690]",below the threshold

# Biological target: GORASP2, Q9H8Y8
# Experiment: holdup assay
# Parameters: key: below the threshold = too weak to quantify, mostly under pKd 3.1 to 4
# Details: plain residues with an end cap or a label only (N-terminal biotin on a linker: ado-ado)
row,Binder,pKd
1,"PLPPEEESWV [GAS2L2, Q8NHY3]",4.48
2,"RSPVATATSC [DUSP5, Q16690]",below the threshold

# Biological target: GRASP, Q7Z6J2
# Experiment: holdup assay
# Parameters: key: below the threshold = too weak to quantify, mostly under pKd 3.1 to 4
# Details: plain residues with an end cap or a label only (N-terminal biotin on a linker: ado-ado)
# Sequence of GRASP, Q7Z6J2 (Q7Z6J2 96-193): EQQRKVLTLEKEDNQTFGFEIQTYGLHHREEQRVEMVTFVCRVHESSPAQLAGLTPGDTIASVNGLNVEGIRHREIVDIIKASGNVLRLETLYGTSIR
row,Binder,pKd
1,"PLPPEEESWV [GAS2L2, Q8NHY3]",4.23
2,"RSPVATATSC [DUSP5, Q16690]",below the threshold

# Biological target: GRID2IP_1, A4D2P6
# Experiment: holdup assay
# Parameters: key: below the threshold = too weak to quantify, mostly under pKd 3.1 to 4
# Details: plain residues with an end cap or a label only (N-terminal biotin on a linker: ado-ado)
# Sequence of GRID2IP_1, A4D2P6 (A4D2P6 1-87): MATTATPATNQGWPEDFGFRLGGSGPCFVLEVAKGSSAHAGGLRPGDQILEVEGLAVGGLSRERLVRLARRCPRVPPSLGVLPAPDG
row,Binder,pKd
1,"PLPPEEESWV [GAS2L2, Q8NHY3]",below the threshold
2,"RSPVATATSC [DUSP5, Q16690]",below the threshold

# Biological target: Inadl_1, Q8NI35
# Experiment: holdup assay
# Parameters: key: below the threshold = too weak to quantify, mostly under pKd 3.1 to 4
# Details: plain residues with an end cap or a label only (N-terminal biotin on a linker: ado-ado)
# Sequence of Inadl_1, Q8NI35 (Q8NI35 113-229): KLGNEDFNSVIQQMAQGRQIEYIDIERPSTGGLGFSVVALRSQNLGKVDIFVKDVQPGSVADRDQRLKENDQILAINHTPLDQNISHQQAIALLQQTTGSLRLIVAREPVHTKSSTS
row,Binder,pKd
1,"PLPPEEESWV [GAS2L2, Q8NHY3]",3.55
2,"RSPVATATSC [DUSP5, Q16690]",below the threshold

# Biological target: Inadl_10, Q8NI35
# Experiment: holdup assay
# Parameters: key: below the threshold = too weak to quantify, mostly under pKd 3.1 to 4
# Details: plain residues with an end cap or a label only (N-terminal biotin on a linker: ado-ado)
# Sequence of Inadl_10, Q8NI35 (Q8NI35 1673-1763): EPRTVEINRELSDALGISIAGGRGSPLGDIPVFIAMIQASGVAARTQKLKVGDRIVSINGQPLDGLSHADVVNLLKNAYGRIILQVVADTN
row,Binder,pKd
1,"PLPPEEESWV [GAS2L2, Q8NHY3]",below the threshold
2,"RSPVATATSC [DUSP5, Q16690]",below the threshold

# Biological target: Inadl_5, Q8NI35
# Experiment: holdup assay
# Parameters: key: below the threshold = too weak to quantify, mostly under pKd 3.1 to 4
# Details: plain residues with an end cap or a label only (N-terminal biotin on a linker: ado-ado)
# Sequence of Inadl_5, Q8NI35 (Q8NI35 673-780): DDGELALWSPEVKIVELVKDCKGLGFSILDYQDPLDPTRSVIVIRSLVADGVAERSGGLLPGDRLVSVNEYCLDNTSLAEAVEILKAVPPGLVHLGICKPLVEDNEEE
row,Binder,pKd
1,"PLPPEEESWV [GAS2L2, Q8NHY3]",4.29
2,"RSPVATATSC [DUSP5, Q16690]",below the threshold

# Biological target: Inadl_9, Q8NI35
# Experiment: holdup assay
# Parameters: key: below the threshold = too weak to quantify, mostly under pKd 3.1 to 4
# Details: plain residues with an end cap or a label only (N-terminal biotin on a linker: ado-ado)
# Sequence of Inadl_9, Q8NI35 (Q8NI35 1530-1615): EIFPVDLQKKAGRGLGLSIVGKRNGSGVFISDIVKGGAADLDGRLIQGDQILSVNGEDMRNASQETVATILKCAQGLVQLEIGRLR
row,Binder,pKd
1,"PLPPEEESWV [GAS2L2, Q8NHY3]",4.34
2,"RSPVATATSC [DUSP5, Q16690]",below the threshold

# Biological target: T4, LIN7A, O14910
# Experiment: holdup assay
# Parameters: key: below the threshold = too weak to quantify, mostly under pKd 3.1 to 4
# Details: plain residues with an end cap or a label only (N-terminal biotin on a linker: ado-ado)
row,Binder,pKd
1,"PLPPEEESWV [GAS2L2, Q8NHY3]",below the threshold
2,"RSPVATATSC [DUSP5, Q16690]",below the threshold

# Biological target: T5, LIN7B, Q9HAP6
# Experiment: holdup assay
# Parameters: key: below the threshold = too weak to quantify, mostly under pKd 3.1 to 4
# Details: plain residues with an end cap or a label only (N-terminal biotin on a linker: ado-ado)
row,Binder,pKd
1,"PLPPEEESWV [GAS2L2, Q8NHY3]",3.96
2,"RSPVATATSC [DUSP5, Q16690]",3.68

# Biological target: LNX1_1, Q8TBB1
# Experiment: holdup assay
# Parameters: key: below the threshold = too weak to quantify, mostly under pKd 3.1 to 4
# Details: plain residues with an end cap or a label only (N-terminal biotin on a linker: ado-ado)
# Sequence of LNX1_1, Q8TBB1 (Q8TBB1 261-371): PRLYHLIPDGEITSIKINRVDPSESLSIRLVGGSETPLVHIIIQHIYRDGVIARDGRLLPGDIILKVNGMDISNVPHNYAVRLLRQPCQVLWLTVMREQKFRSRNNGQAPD
row,Binder,pKd
1,"PLPPEEESWV [GAS2L2, Q8NHY3]",below the threshold
2,"RSPVATATSC [DUSP5, Q16690]",below the threshold

# Biological target: MAGI2_2, Q86UL8
# Experiment: holdup assay
# Parameters: key: below the threshold = too weak to quantify, mostly under pKd 3.1 to 4
# Details: plain residues with an end cap or a label only (N-terminal biotin on a linker: ado-ado)
# Sequence of MAGI2_2, Q86UL8 (Q86UL8 410-522): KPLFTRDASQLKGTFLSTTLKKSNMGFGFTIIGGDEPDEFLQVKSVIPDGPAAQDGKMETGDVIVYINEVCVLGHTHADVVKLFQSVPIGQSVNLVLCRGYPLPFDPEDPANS
row,Binder,pKd
1,"PLPPEEESWV [GAS2L2, Q8NHY3]",below the threshold
2,"RSPVATATSC [DUSP5, Q16690]",below the threshold

# Biological target: MAGI2_6, Q86UL8
# Experiment: holdup assay
# Parameters: key: below the threshold = too weak to quantify, mostly under pKd 3.1 to 4
# Details: plain residues with an end cap or a label only (N-terminal biotin on a linker: ado-ado)
# Sequence of MAGI2_6, Q86UL8 (Q86UL8 1141-1229): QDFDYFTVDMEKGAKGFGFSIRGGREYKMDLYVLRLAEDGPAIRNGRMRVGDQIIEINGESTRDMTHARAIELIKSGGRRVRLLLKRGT
row,Binder,pKd
1,"PLPPEEESWV [GAS2L2, Q8NHY3]",5.88
2,"RSPVATATSC [DUSP5, Q16690]",below the threshold

# Biological target: MAST2, Q6P0Q8
# Experiment: holdup assay
# Parameters: key: below the threshold = too weak to quantify, mostly under pKd 3.1 to 4
# Details: plain residues with an end cap or a label only (N-terminal biotin on a linker: ado-ado)
# Sequence of MAST2, Q6P0Q8 (Q6P0Q8 1099-1202): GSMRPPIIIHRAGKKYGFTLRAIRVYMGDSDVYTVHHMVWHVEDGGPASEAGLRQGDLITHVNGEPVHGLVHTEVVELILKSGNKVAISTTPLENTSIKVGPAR
row,Binder,pKd
1,"PLPPEEESWV [GAS2L2, Q8NHY3]",5.12
2,"RSPVATATSC [DUSP5, Q16690]",4.22

# Biological target: T6, MPDZ_12, O75970
# Experiment: holdup assay
# Parameters: key: below the threshold = too weak to quantify, mostly under pKd 3.1 to 4
# Details: plain residues with an end cap or a label only (N-terminal biotin on a linker: ado-ado)
row,Binder,pKd
1,"PLPPEEESWV [GAS2L2, Q8NHY3]",4.36
2,"RSPVATATSC [DUSP5, Q16690]",below the threshold

# Biological target: NHERF2_2, Q15599
# Experiment: holdup assay
# Parameters: key: below the threshold = too weak to quantify, mostly under pKd 3.1 to 4
# Details: plain residues with an end cap or a label only (N-terminal biotin on a linker: ado-ado)
# Sequence of NHERF2_2, Q15599 (Q15599 142-238): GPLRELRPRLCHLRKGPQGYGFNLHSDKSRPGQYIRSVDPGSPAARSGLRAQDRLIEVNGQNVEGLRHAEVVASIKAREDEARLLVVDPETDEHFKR
row,Binder,pKd
1,"PLPPEEESWV [GAS2L2, Q8NHY3]",4.62
2,"RSPVATATSC [DUSP5, Q16690]",below the threshold

# Biological target: NHERF4_4, Q86UT5
# Experiment: holdup assay
# Parameters: key: below the threshold = too weak to quantify, mostly under pKd 3.1 to 4
# Details: plain residues with an end cap or a label only (N-terminal biotin on a linker: ado-ado)
# Sequence of NHERF4_4, Q86UT5 (Q86UT5 464-550): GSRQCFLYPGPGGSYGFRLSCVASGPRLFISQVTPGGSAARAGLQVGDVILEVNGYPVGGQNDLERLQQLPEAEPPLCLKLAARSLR
row,Binder,pKd
1,"PLPPEEESWV [GAS2L2, Q8NHY3]",below the threshold
2,"RSPVATATSC [DUSP5, Q16690]",below the threshold

# Biological target: T7, PCLO, Q9Y6V0
# Experiment: holdup assay
# Parameters: key: below the threshold = too weak to quantify, mostly under pKd 3.1 to 4
# Details: plain residues with an end cap or a label only (N-terminal biotin on a linker: ado-ado)
row,Binder,pKd
1,"PLPPEEESWV [GAS2L2, Q8NHY3]",below the threshold
2,"RSPVATATSC [DUSP5, Q16690]",below the threshold

# Biological target: T8, PTPN13_1, Q12923
# Experiment: holdup assay
# Parameters: key: below the threshold = too weak to quantify, mostly under pKd 3.1 to 4
# Details: plain residues with an end cap or a label only (N-terminal biotin on a linker: ado-ado)
row,Binder,pKd
1,"PLPPEEESWV [GAS2L2, Q8NHY3]",below the threshold
2,"RSPVATATSC [DUSP5, Q16690]",below the threshold

# Biological target: T9, SHANK1, Q9Y566
# Experiment: holdup assay
# Parameters: key: below the threshold = too weak to quantify, mostly under pKd 3.1 to 4
# Details: plain residues with an end cap or a label only (N-terminal biotin on a linker: ado-ado)
row,Binder,pKd
1,"PLPPEEESWV [GAS2L2, Q8NHY3]",4.62
2,"RSPVATATSC [DUSP5, Q16690]",3.55

# Biological target: T10, TX1BP3, O14907
# Experiment: holdup assay
# Parameters: key: below the threshold = too weak to quantify, mostly under pKd 3.1 to 4
# Details: plain residues with an end cap or a label only (N-terminal biotin on a linker: ado-ado)
row,Binder,pKd
1,"PLPPEEESWV [GAS2L2, Q8NHY3]",4.62
2,"RSPVATATSC [DUSP5, Q16690]",below the threshold

# — PMC9482650, “Quantitative fragmentomics allow affinity mapping of interactomes” (Nature Communications, 2022)
